This is an account of results in IntAct's records for PubMed 34606829.

B1: ALK tyrosine kinase receptor (Homo sapiens), Q9UM73 (parent)
chain: MGAIGLLWLLPLLLSTAAVGSGMGTGQRAGSPAAGPPLQPREPLSYSRLQRKSLAVDFVVPSLFRVYARDLLLPPSSSELKAGRPEARGSLALDCAPLLRLLGPAPGVSWTAGSPAPAEARTLSRVLKGGSVRKLRRAKQLVLELGEEAILEGCVGPPGEAAVGLLQFNLSELFSWWIRQGEGRLRIRLMPEKKASEVGREGRLSAAIRASQPRLLFQIFGTGHSSLESPTNMPSPSPDYFTWNLTWIMKDSFPFLSHRSRYGLECSFDFPCELEYSPPLHDLRNQSWSWRRIPSEEASQMDLLDGPGAERSKEMPRGSFLLLNTSADSKHTILSPWMRSSSEHCTLAVSVHRHLQPSGRYIAQLLPHNEAAREILLMPTPGKHGWTVLQGRIGRPDNPFRVALEYISSGNRSLSAVDFFALKNCSEGTSPGSKMALQSSFTCWNGTVLQLGQACDFHQDCAQGEDESQMCRKLPVGFYCNFEDGFCGWTQGTLSPHTPQWQVRTLKDARFQDHQDHALLLSTTDVPASESATVTSATFPAPIKSSPCELRMSWLIRGVLRGNVSLVLVENKTGKEQGRMVWHVAAYEGLSLWQWMVLPLLDVSDRFWLQMVAWWGQGSRAIVAFDNISISLDCYLTISGEDKILQNTAPKSRNLFERNPNKELKPGENSPRQTPIFDPTVHWLFTTCGASGPHGPTQAQCNNAYQNSNLSVEVGSEGPLKGIQIWKVPATDTYSISGYGAAGGKGGKNTMMRSHGVSVLGIFNLEKDDMLYILVGQQGEDACPSTNQLIQKVCIGENNVIEEEIRVNRSVHEWAGGGGGGGGATYVFKMKDGVPVPLIIAAGGGGRAYGAKTDTFHPERLENNSSVLGLNGNSGAAGGGGGWNDNTSLLWAGKSLQEGATGGHSCPQAMKKWGWETRGGFGGGGGGCSSGGGGGGYIGGNAASNNDPEMDGEDGVSFISPLGILYTPALKVMEGHGEVNIKHYLNCSHCEVDECHMDPESHKVICFCDHGTVLAEDGVSCIVSPTPEPHLPLSLILSVVTSALVAALVLAFSGIMIVYRRKHQELQAMQMELQSPEYKLSKLRTSTIMTDYNPNYCFAGKTSSISDLKEVPRKNITLIRGLGHGAFGEVYEGQVSGMPNDPSPLQVAVKTLPEVCSEQDELDFLMEALIISKFNHQNIVRCIGVSLQSLPRFILLELMAGGDLKSFLRETRPRPSQPSSLAMLDLLHVARDIACGCQYLEENHFIHRDIAARNCLLTCPGPGRVAKIGDFGMARDIYRASYYRKGGCAMLPVKWMPPEAFMEGIFTSKTDTWSFGVLLWEIFSLGYMPYPSKSNQEVLEFVTSGGRMDPPKNCPGPVYRIMTQCWQHQPEDRPNFAIILERIEYCTQDPDVINTALPIEYGPLVEEEEKVPVRPKDPEGVPPLLVSQQAKREEERSPAAPPPLPTTSSGKAAKKPTAAEISVRVPRGPAVEGGHVNMAFSQSNPPSELHKVHGSRNKPTSLWNPTYGSWFTEKPTKKNNPIAKKEPHDRGNLGLEGSCTVPPNVATGRLPGASLLLEPSSLTANMKEVPLFRLRHFPCGNVNYGYQQQGLPLEAATAPGAGHYEDTILKSKNSMNQPGP
partner: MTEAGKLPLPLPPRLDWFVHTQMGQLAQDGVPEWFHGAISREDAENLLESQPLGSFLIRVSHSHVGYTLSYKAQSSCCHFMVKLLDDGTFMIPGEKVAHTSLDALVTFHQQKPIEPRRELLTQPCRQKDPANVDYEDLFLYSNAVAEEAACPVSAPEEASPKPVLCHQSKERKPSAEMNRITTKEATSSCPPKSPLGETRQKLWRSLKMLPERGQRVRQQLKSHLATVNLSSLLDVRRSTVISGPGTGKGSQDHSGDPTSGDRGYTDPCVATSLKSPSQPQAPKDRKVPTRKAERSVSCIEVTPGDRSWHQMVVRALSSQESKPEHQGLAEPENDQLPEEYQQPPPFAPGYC
B2: ALK tyrosine kinase receptor (Homo sapiens), Q9UM73 (parent)
chain: B1 chain
partner: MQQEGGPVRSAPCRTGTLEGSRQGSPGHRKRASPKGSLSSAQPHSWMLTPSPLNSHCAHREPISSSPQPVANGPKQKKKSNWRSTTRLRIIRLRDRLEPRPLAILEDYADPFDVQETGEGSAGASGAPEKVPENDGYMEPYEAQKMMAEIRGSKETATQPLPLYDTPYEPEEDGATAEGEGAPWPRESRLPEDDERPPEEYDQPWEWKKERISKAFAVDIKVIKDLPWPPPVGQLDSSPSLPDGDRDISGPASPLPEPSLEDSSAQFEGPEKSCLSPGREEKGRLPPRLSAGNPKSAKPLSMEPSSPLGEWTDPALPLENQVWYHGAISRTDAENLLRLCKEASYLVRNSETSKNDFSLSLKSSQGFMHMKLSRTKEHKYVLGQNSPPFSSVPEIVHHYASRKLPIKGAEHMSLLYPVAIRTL
B3: ALK tyrosine kinase receptor (Homo sapiens), Q9UM73 (parent)
chain: B1 chain
partner: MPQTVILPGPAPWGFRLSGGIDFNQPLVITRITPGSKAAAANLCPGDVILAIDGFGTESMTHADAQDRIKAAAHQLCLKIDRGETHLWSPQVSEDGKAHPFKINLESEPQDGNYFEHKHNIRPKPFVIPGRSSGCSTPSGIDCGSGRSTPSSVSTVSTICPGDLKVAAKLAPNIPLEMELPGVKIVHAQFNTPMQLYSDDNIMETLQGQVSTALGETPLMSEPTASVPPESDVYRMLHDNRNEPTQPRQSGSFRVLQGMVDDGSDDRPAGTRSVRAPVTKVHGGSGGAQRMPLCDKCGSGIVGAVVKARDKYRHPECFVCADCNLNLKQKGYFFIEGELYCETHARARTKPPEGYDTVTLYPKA
B4: ALK tyrosine kinase receptor (Homo sapiens), Q9UM73 (parent)
chain: B1 chain
partner: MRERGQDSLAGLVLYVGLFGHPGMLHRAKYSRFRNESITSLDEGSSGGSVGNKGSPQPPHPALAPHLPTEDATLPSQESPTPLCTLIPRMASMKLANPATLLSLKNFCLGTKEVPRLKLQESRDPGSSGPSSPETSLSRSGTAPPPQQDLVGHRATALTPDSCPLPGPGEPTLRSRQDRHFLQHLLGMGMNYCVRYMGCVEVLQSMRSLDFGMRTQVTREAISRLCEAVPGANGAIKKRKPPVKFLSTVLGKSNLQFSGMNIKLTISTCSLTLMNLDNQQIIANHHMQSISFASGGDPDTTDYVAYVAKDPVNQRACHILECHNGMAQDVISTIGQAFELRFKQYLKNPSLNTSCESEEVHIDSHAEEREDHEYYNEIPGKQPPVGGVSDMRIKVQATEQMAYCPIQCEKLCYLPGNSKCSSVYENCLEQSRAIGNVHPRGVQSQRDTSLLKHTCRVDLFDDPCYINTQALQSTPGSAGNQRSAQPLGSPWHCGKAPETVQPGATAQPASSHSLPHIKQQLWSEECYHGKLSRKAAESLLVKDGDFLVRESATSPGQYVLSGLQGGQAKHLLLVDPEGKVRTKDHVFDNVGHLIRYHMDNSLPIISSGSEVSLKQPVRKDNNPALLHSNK
B5: ALK tyrosine kinase receptor (Homo sapiens), Q9UM73 (parent)
chain: B1 chain
partner: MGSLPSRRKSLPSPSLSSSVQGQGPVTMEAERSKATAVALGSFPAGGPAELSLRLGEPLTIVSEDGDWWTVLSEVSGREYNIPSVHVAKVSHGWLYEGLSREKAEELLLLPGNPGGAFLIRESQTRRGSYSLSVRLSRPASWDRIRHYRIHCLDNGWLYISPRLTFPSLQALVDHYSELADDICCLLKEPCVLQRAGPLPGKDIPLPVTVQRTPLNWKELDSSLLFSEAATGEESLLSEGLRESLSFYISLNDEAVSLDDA

Variants of B1 are the subject of one assay. The note with it: with hsh2d_human HSH2D.
Consider L1196M, for which the “effect of a mutation on the interaction” value was “increasing interaction strength”.

In the case of F1245C, the “effect of a mutation on the interaction” value is reported as “increasing interaction strength”.

Regarding I1250T, the “effect of a mutation on the interaction” value was “decreasing interaction strength”.

The variants in a further assay derive from B2. The note with it: with shf_human SHF.
L1196M: the “effect of a mutation on the interaction” value is on record as “increasing interaction strength”.

As to I1250T, the “effect of a mutation on the interaction” value is listed as “decreasing interaction strength”.

Consider F1245C, for which the “effect of a mutation on the interaction” value is listed as “increasing interaction strength”.

The variants in another assay derive from B3. Conditions: with pdli3_human PDLIM3, Q53GG5.
F1245C: the “effect of a mutation on the interaction” value is “increasing interaction strength”.

For I1250T, the “effect of a mutation on the interaction” value is “decreasing interaction strength”.

Turning to L1196M, the “effect of a mutation on the interaction” value is recorded as “increasing interaction strength”.

Another assay covers variants of B4. Conditions: with shc4_human SHC4, Q6S5L8.
As to L1196M, the “effect of a mutation on the interaction” value is recorded as “increasing interaction strength”.

On to I1250T, for which the “effect of a mutation on the interaction” value was “decreasing interaction strength”.

With F1245C, the “effect of a mutation on the interaction” value was “increasing interaction strength”.

In another assay the parent is B5. Conditions: with slap2_human SLA2, Q9H6Q3.
Consider I1250T, for which the “effect of a mutation on the interaction” value is “decreasing interaction strength”.
